Test results published in the DeepSol protein solubility set.

Test: soluble on expression in E. coli; label from the status in PepcDB or PDB records

| Sequence | soluble on expression in E. coli |
| --- | --- |
| MSLPYSSSGVGHNGFDKADLHIHTKCSDGLFTPEEIVHKAIHVGLKAISITDHDTVTGIDQAKPLALELGLELIPGVEMSSAYKGYDIHILGYFFDYQQSELKGYLDHCRLLRTERAERMVQKLAKMGVKIEIEQIIMKAQNGSVGRPHIAAVLQDEGFVKSFSEAFSKYLGSHSPAYVKSIETHPEEVIRLINEAGGLSFLAHPAQNVPDEILRQLISFGLDGLEIIHPSHDTYRQNYYREIANEYFLLFSGGSDYHGPKDHEDNFGQVWIPYEWVTKMKSRLAPAVKEGHHHHHH | soluble |
| MSNTQHKLDKTRPPRVQITYDVETGDAETAKELPLVIGVLGEYSSSEKPLRERKFISIDKDNFDEVMASMSPTAHFMVDSVIPGNEGKLDVELRFSCKDDFSPDNVIQQVECLRKLSELRLHLCDLRNRAASNEKLKEKLQELLVTTNGNPENDESKE | not soluble |
| MNAYCLTLNDTNIAIEKKDIKHLHISVCPPDGSVHVSCPLALNDESLRLSLIKRLHWIKEQQQNFLNQNRQSQRGMLERESHYLFGKRYLLKIEHTTKKHFVLQNPKYLILHVHQKTSLENRLKVLENYYRQVLREKIQTCINRYEKILNESIQSFKIQKMKRIWGSCNIAKRALLFNLELAKVPRKGIEYVVVHELLHLKTRHHNEYFRDLLSLYLPNWQRAKASLKETYLERSLEHHHHHH | not soluble |
| MVDIEPDRVYVFTPDGHAIDLPKNATPLDFAYRVHTEIGHNCRGAKINGRIVPLNYSLQTGEQVEIITSKHGTPSRDWLEHHHHHH | not soluble |
| MIEAEEQQPCKTDFYSELPKVELHAHLNGSISSHTMKKLIAQKPDLKIHDQMTVIDKGKKRTLEECFQMFQTIHQLTSSPEDILMVTKDVIKEFADDGVKYLELRSTPRRENATGMTKKTYVESILEGIKQSKQENLDIDVRYLIAVDRRGGPLVAKETVKLAEEFFLSTEGTVLGLDLSGDPTVGQAKDFLEPLLEAKKAGLKLALHLSEIPNQKKETQILLDLLPDRIGHGTFLNSGEGGSLDLVDFVRQHRIPLGKAWSFRSSR | soluble |
| MGSDKIHHHHHHCKDDDTLLRGSGITEQSWSTNQTYFASAEQTLTFTFTTLSSWTAQNSSTALLSLDNTAGNSGENTIKVTVHKSSQEQGTITIKVNGYSSASNIKIQLSDDDVQGYEINYSVDQYLREKYLWNDDYKLLTPNFRQAYDEFLRNTLLSMTTNTLDKKRNSNGTYSLFSFIQKLDPDLQTSRSAKEKKTLEYNYGFVNFIAVGNRNNSNYGLVIQGVHKGSSADKEGLKRGMEITEIDNQRITTTNVQACYSKLIKPSSPTSIKVKDKDGKVYTINSGPIYANPIIHHQVNEKIGYLVYSAFESGFDQELFDVFKEFKSQNITELILDLRYNGGGDVTSANLISSCIAGDLCIDKTFASYRYNDERMKVLGNQRPIQKFAYSQYDNLSTSLSAGGLNLRKIYCLVTDDSASASELVINALRGIDIEVILIGTTTHGKNVGMEGVELTAGTDKYLLFPITFQAYNAKGFGDFENGFTPDYEINENKPNGEYFEGYGDFGAESDPLYAKAISLISGNEVTTPTRAVNQAKEQMLVIATPRLNRIGMIK | not soluble |
| EVPDLPEEPSETAEEVVTVALRCPNGRVLRRRFFKSWNSQVLLDWMMKVGYHKSLYRLSTSFPRRALEVEGGSSLEDIGITVDTVLNVEEKEQSSQ | soluble |
| MGSDKIHHHHHHMKLLLTRPEGKNAAMASALDALAIPYLVEPLLSVEAAAVTQAQLDELSRADILIFISTSAVSFATPWLKDQWPKATYYAVGDATADALALQGITAERSPADSQATEGLLTLPSLEQVSGKQIVIVRGKGGREAMADGLRLRGANVSYLEVYQRACPPLDAPASVSRWQSFGIDTIVVTSGEVLENLINLVPKDSFAWLRDCHIIVPSARVETQARKKGLRRVTNAGAANQAAVLDALGM | not soluble |
| MHGADIKAIVFDLDGTLYEETEHFDYYAERVAKRLREADRRRFWDDYRAVLADCHPLRIGSMYDAKEDLIVWLEEGAVRKAFRWSGEPLTKREIETVYKKPVAVDLDRFFSIGDLWWVSSSIGRHYGLTNEDTYAAFLETREWMMGPEFKMNGAPGLAETLVELHEKAALVLMTNSPEPDSEAILWKLRLADVFHHKIFQAAKPMKTAAHLEAIRARFGVDYRQMLCVGDNIGNDIAPARRLGCRTMLVDTYGLAKQGVADFIVASTSACVPVLRRLL | not soluble |
| GPGSMVRKNMYDGWSYERLRQQRNRAHFLLEDPYRFVTVLLHNGKLYAIDSPCYHASGPLGEGELMDLEDSHTAASVACLRCPWHNILVAIDTGEIVEVHPDTSAVRGKDDGGRELAAPSYPLRPHWEASAGSVRLSRGNVVQRTHKVSLDESNGIMTIEIEDEATMRRHPLPSDAAAGILESGALTMQIFDIKSKGMS | soluble |
| MGTPKPRILPWLVSQLDLGQLEGVAWVNKSRTRFRIPWKHGLRQDAQQEDFGIFQAWAEATGAYVPGRDKPDLPTWKRNFRSALNRKEGLRLAEDRSKDPHDPHKIYEFVNSGVGDFSQPDTS | soluble |
| MSLGQKFAVFIAYDDEPNTKRYSAEFQTQDEYVKGWQSALKKAHHTSGQKSVISCGCRGKGAKRLYVRSLPNSDTFILIKAANTGTEHDPSCVFFDLDARHTGLKGYASNVVRINNEGTMSIRLGIGMTEKDPPEKSEVPSLPQIQRPEGGQASMTLSGLLSLLWTEAGLNVWYPNMAGKRNDSLVRYRMLEAAKQIRSGRACIGDHLFIGVADSKSKVASEQVQLLSSAELSDKRLLLLSVLPRYDAEKHEKPLKFLPMRNFGGMPLTFFNSDGHWDSVKRRFPLEYAAWKNGGKVVVFALTSPVSVTSRGISARAHQIVLMLVSDNWIPLDSSYEAIVSRKLDAEHRHYVKPMRYDASASDVFPDFYLLDTRSDKPFPMEVFGMSTPAYLARKELKKAYYNQEYGAYGWWHWDATEKTEYQELPHFPEARREGHHHHHH | soluble |
| MGSDKIHHHHHHMDLKKWQDPLMNSELQQNYNDNLVKLAGSLEKANQDMTHVNQRISNLVIKSGGNESNEVVDARVSSLVPETEFTTLNDRINYAENALITGVGKLSTNVFDLMDKYNDIDTILKRLYGLDSSNIEIFVDDARGDDIAGTGEIDAPFKTINKAVMTLPRVLNSNSVNIWIVPGRYNEDVVIPPIMGGDIYIRSTNFETVDPTSSTGCQVRSISATGSNGYLYIAGLEETNTAGTTKNYFIKATRCGFVRITKCRMAFNTKAIDPFTAVFIDACSADVNGCYFASQNVDVRGYNTARVEVQNIVHGAKSAIGLYPQSADIFNLNSGTWEADTPTKLSGGGVVRT | not soluble |
| MGRQAMKKFVDVSHTIENGLITYKGLPAPIICDYLSREESRSFYEPGTEFQIGKIEMVTNTGTYIDVPFHRYADGKDLSEATVEQMAGLEGVVIPVDKHVKKIDVDVFKSADLHGKAVLIYTGWDEHWNTERYFEDHPYVTEEAANYLKEQKVALVGIDSHNIDDTSGKRRPVHTILLRADILIVEHLCKLGQLVDQSFLFYAVAPKFKGAGTFPVRAFAEIVLEHHHHHH | soluble |
| IKQMLLDWCRAKTRGYEHVDIQNFSSSWSDGMAFCALVHNFFPEAFDYGQLSPQNRRQNFEVAFSSAETHADCPQLLDTEDMVRLREPDWKCVYTYIQEFYRCLVQKGLVKTKKS | soluble |
| SNAMTEARKIPKPSFPYGSPGELNSFLPYLLTRITHIWSSELNQALASEKLPTPKLRLLSSLSAYGELTVGQLATLGVMEQSTTSRTVDQLVDEGLAARSISDADQRKRTVVLTRKGKKKLAEISPLINDFHAELVGNVDPDKLQTCIEVLGEILKGKTDY | soluble |
| AHHHHHHGSGDNRKVRVVVGGVFDILHVGHVHFLKMAKELGDELIVIVAHDETVKRRKGRPPINPAEDRAELLKSIRYVDDVVIGEPGEISIDLIKRLKPDVIALGPDQDFSCEELKKRLRKEGINAEVIRLPYLYKSDRAKTSKIIQRIIETFCE | not soluble |
| MKEETFYLVREDVLPDAMRKTLEVKKLLDRKKADSVADAVQKVDLSRSAFYKYRDAVFPFYTMVKEQIITLFFHLEDRSGALSQLLQAVADSGSNVLSIHQTIPLQGRANVTLSISTSAMEEDIHTLMNKLRKFDFVEKVEILGSGA | not soluble |
| MGSDKIHHHHHHMGTIWPDSLPQSKGAKYTLVADVIRKAIDTKELEVGVKLPPVRELAYKLGITPGTVARAYTILTDEGLLNAEVGRGTFVAPPKRPVLDDVWSRQLYLLDERDDDNVSLFSPRLADMGQVALIRECLQKVAQGDPAMFLNYPTRDAYAGVRQAVVDWMSDLSLGPLTADDIVLTHGGQSGLCVVFQTVFKGPKPVVLVEDLSYAGFRRAAELMRADVIGVRMDKWGIDPMSLDLTARQSPAQAICVSPEVQNPTGSRSPLERRKEVVEVARKHDLQIIEDDCYRMGEPQAPSYRALAPERGWHVSSVSKTLTPALRVGFAIAPEGQSAGLRRSAEYGYFGLAQPLAELTRLMLSDPRARDLARAVQRRMAEYVRVTVNTLGGFDLVWDSAVPFVWLRLPSGWRSAAFTRAAERAGVQVRSADEFALRDGRAPNAVRIAMNAHVSLERFETAMVRLRALLDNPPEQISV | not soluble |
| MLSPEQDLNRHADPFPFNEEPSSQDLDSLRDLVTEAETLQDMVTGGLSIDAILNVLDATGEDETIWPVEKTPPDILHLLSPEYAPETAHNTVLPDLTRKEHRIIGIDSHYRINPAQHGEIYHDKQ | not soluble |
| MGSDKIHHHHHHMTDRSSFIDTARQVVLDEARALDALSESLGDGFAEAVELILRTKGRVIVSGIGKSGHIGHKIAATLASTGTPAYFVHPAEASHGDLGMLSGDDVVLAISNSGEAPELANLLAFTRRFAIPLIGLSSKSESSLMQQADVHLLIPALGEACGFGMVPSISTTLTLAMGDALAIALMKYRDFRPENFRVFHPGGKLGARLSRVSDLMHGGEAVPLIAADTPMSEALLEISRKGFGVVGVTDGAGHLAGIVTDGDLRRHMSGLLDKTAAQVMTANPTTIAPDSLAEEAVAIMNARKITSLFVVDPAEPGVARGLLHIHDCLRVGLG | not soluble |
| MGSDKIHHHHHHMMFVHIADNHLGYRQYNLDDREKDIYDSFKLCIKKILEIKPDVVLHSGDLFNDLRPPVKALRIAMQAFKKLHENNIKVYIVAGNHEMPRRLGEESPLALLKDYVKILDGKDVINVNGEEIFICGTYYHKKSKREEMLDKLKNFESEAKNYKKKILMLHQGINPYIPLDYELEHFDLPKFSYYALGHIHKRILERFNDGILAYSGSTEIIYRNEYEDYKKEGKGFYLVDFSGNDLDISDIEKIDIECREFVEVNIKDKKSFNEAVNKIERCKNKPVVFGKIKREFKPWFDTLKDKILINKAIIVDDEFIDMPDNVDIESLNIKELLVDYANRQGIDGDLVLSLYKALLNNENWKELLDEYYNTKFRG | not soluble |
| TREFNDLCRPHMEALAILCGETVNLVIRVGTQARFLSSAESTGMLRVGDRQGQVLDAELTAGGRILLAELPRETLEQLYLRPVDLADDDREWGDRRLPADEFERFWRELSAARAVGFAVNVQQTEEGVAAFGVAIRNRARTAVGALTVAVPITRFRQHSQGPLVSQIKNAIRELEVDIADLEP | not soluble |
